Experimental findings from paper PMC5797133 are described below.

Assay [1] has as its target short-chain dehydrogenase/reductase from Serratia marcescens BCRC 10948 (Serratia marcescens BCRC 10948). In words: SEC; size-exclusion chromatography of the purified SmSDR; single peak; conditions not given.
Assay [2] shares this target. Briefly: crystal structure; apo form, 1.47 Å, space group P4(1)2(1)2; sitting drop, 20 °C, 50 mM HEPES pH 7.0, 40% tacsimate pH 7.0, 2 mM spermine, 2 mM hexamine cobalt (III) chloride; homodimer AB in the asymmetric unit, tetramer by two-fold crystallographic symmetry.

By stoichiometry N is commonly meant a count of units in the complex or per binding partner.

As for “short-chain dehydrogenase/reductase from Serratia marcescens BCRC 10948 (enzyme)”, the stoichiometry N in assay [1] and in assay [2] was 4 throughout.
